Experimental data taken from patent US20030211992A1 (published 2003).
Like-named read-outs stand apart in the source and are kept apart here. Positions of bridges follow the written chain, without caps; N, C: chain ends. No end group written: not given here.

How the values were obtained:
human IGFBP-1 [1] = molecular target: T1, human IGFBP-1 (human, UniProt P08833 26-259); assay: competitive phage ELISA
T1 construct: biotinylated in the ELISA formats; amine-coupled to the chip in peptide kinetics
T1 sequence (looked up): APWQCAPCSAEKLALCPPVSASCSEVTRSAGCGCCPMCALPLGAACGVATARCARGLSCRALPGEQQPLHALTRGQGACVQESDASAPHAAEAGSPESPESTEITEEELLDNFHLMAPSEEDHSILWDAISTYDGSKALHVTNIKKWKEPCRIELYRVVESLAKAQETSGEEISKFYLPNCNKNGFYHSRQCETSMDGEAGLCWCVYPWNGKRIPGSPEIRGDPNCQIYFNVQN

[2] = molecular target: T2, recombinant human IGFBP-3 (human, UniProt P17936 28-291); assay: competitive phage ELISA
T2 construct: biotinylated and held on a streptavidin chip in the ALS experiment

human IGFBP-1 [3] = molecular target: T1, human IGFBP-1; assay: competitive phage ELISA; remark: listed apart in the source
[4] = molecular target: T2, recombinant human IGFBP-3; assay: competitive phage ELISA; remark: listed apart in the source
human IGFBP-1 [5] = molecular target: T1, human IGFBP-1; assay: competitive phage ELISA; the reference itself
[6] = molecular target: T2, recombinant human IGFBP-3; assay: competitive phage ELISA; the reference itself
[7] = molecular target: T2, recombinant human IGFBP-3; assay: phage ELISA on IGFBP-3 plate, competitor IGF-1
Protocol: The plates were then washed ten times, as above, and a solution of rabbit anti-phage antibody mixed with a goat-anti-rabbit conjugate of horseradish peroxidase was added. After an incubation of 1 hour at room temperature, the plates were developed with a chromogenic substrate, o-phenylenediamine (Sigma). The reaction was stopped with addition of ½ volume of 2.5 M H₂SO₄. Optical density at 490 nm was measured on a spectrophotometric plate reader.
In each case, the phagemid clone was grown from a single colony overnight at 37° C. in a culture volume of 5 ml. The phage particles were precipitated and resuspended in 0.5 ml of PBS buffer.

human IGFBP-1 [8] = molecular target: T1, human IGFBP-1; assay: stated with the explant experiment
[9] = molecular target: IGFBP-3/E3A/F49A IGF-1 binary complex (human) (UniProt P17936); assay: BIAcore, ALS dissociation from the IGFBP-3/IGF-1 complex
[10] = molecular target: IGFBP-3/F49A IGF-1 binary complex (human) (UniProt P17936); assay: as above
human IGFBP-1 [11] = molecular target: T1, human IGFBP-1; assay: BIAcore inhibition of IGFBP-1 binding to IGF-1

T2 sequence (P17936 28-291 limits assumed): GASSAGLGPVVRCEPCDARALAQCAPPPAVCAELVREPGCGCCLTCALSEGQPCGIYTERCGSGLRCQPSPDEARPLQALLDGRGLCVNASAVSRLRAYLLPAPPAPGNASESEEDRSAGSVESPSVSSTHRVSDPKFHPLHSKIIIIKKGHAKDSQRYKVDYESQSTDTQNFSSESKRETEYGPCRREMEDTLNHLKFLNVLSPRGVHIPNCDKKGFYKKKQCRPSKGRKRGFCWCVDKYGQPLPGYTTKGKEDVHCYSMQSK
IGFBP-3/F49A IGF-1 binary complex (human), sequence (P17936 28-291, chain 1 of 2): as the sequence (P17936 28-291 limits assumed) above
IGFBP-3/F49A IGF-1 binary complex (human), sequence (chain, as listed by the source F49A F49A, chain 2 of 2): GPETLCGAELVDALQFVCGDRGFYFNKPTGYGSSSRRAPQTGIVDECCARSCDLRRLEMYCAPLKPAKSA
IGFBP-3/E3A/F49A IGF-1 binary complex (human), sequence (P17936 28-291, chain 1 of 2): as the sequence (P17936 28-291 limits assumed) above
IGFBP-3/E3A/F49A IGF-1 binary complex (human), sequence (chain, as listed by the source F49A F49A, chain 2 of 2): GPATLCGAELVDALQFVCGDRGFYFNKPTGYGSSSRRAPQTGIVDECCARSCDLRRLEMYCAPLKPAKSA

IGF-1 G1S-A70V on phage (from UniProt P69168 267-424) (ligand)
IC50 (human IGFBP-1 [1]): 8.2 nM
IC50 [2]: 0.75 nM
IC50 (human IGFBP-1 [3]): 8.5 nM
IC50 [4]: 0.5 nM
relative IC50 (mut/G1S-A70V) (human IGFBP-1 [5]): 1
relative IC50 (mut/G1S-A70V) [6]: 1

B1: peptide-phage clone 4D3.12 (g8 display) (peptide)
chain: AEWAECWIAGDQLLCVGKDNGGGSGGGAEGDDPAKAAFNSLQASATEYIGYAWAMVVVIVGATIGIKLFKKFTSKAS
notes: polyvalent on M13 phage
% inhibition of phage binding by 100 nM IGF-1 [7]: > 40%

B2: peptide-phage clone 4D3.8 (g8 display) (peptide)
chain: SEEVCWPVAEWYLCNILGPGGGSGGGAEGDDPAKAAFNSLQASATEYIGYAWAMVVVIVGATIGIKLFKKFTSKAS
notes: polyvalent on M13 phage
% inhibition of phage binding by 100 nM IGF-1 [7]: > 40%

B3: peptide-phage clone 4C3.2 (g8 display) (peptide)
chain: ELDGWVCIKVGEQNLCYLAEGGGSGGGAEGDDPAKAAFNSLQASATEYIGYAWAMVVVIVGATIGIKLFKKFTSKAS
notes: polyvalent on M13 phage
% inhibition of phage binding by 100 nM IGF-1 [7]: > 40%

B4: peptide-phage clone 4D3.11 (g8 display) (peptide)
chain: VAWEVCWDRHDQGYICTTDSGGGSGGGAEGDDPAKAAFNSLQASATEYIGYAWAMVVVIVGATIGIKLFKKFTSKAS
notes: polyvalent on M13 phage
% inhibition of phage binding by 100 nM IGF-1 [7]: 5%

CRAGPLQWLCEKYF-NH2 (disulfide 1-10 (inferred)) [BP1-16]
binding result (human IGFBP-1 [8]): binds

B5: human acid-labile subunit (protein, UniProt P35858 28-605, looked up)
chain: ADPGTPGEAEGPACPAACVCSYDDDADELSVFCSSRNLTRLPDGVPGGTQALWLDGNNLSSVPPAAFQNLSSLGFLNLQGGQLGSLEPQALLGLENLCHLHLERNQLRSLALGTFAHTPALASLGLSNNRLSRLEDGLFEGLGSLWDLNLGWNSLAVLPDAAFRGLGSLRELVLAGNRLAYLQPALFSGLAELRELDLSRNALRAIKANVFVQLPRLQKLYLDRNLIAAVAPGAFLGLKALRWLDLSHNRVAGLLEDTFPGLLGLRVLRLSHNAIASLRPRTFKDLHFLEELQLGHNRIRQLAERSFEGLGQLEVLTLDHNQLQEVKAGAFLGLTNVAVMNLSGNCLRNLPEQVFRGLGKLHSLHLEGSCLGRIRPHTFTGLSGLRRLFLKDNGLVGIEEQSLWGLAELLELDLTSNQLTHLPHRLFQGLGKLEYLLLSRNRLAELPADALGPLQRAFWLDVSHNRLEALPNSLLAPLGRLRYLSLRNNSLRTFTPQPPGLERLWLEGNPWDCGCPLKALRDFALQNPSAVPRFVQAICEGDDCQPPAYTYNNITCASPPEVVGLDLRDLSEAHFAPC
koff [9]: 0.0004 s⁻¹
koff [10]: 0.00042 s⁻¹

Ac-LEWLAEKYFE (linker 2-10 via 1,5‑diaminopentane) [(i+8)A]
fold potency reduction against BP1-01 (human IGFBP-1 [11]): > 200

B6: peptide-phage clone 4D3.9 (g8 display) (peptide)
chain: ETVANCDCYMDLCLCYGSDRGGGSGGGAEGDDPAKAAFNSLQASATEYIGYAWAMVVVIVGATIGIKLFKKFTSKAS
notes: polyvalent on M13 phage
% inhibition of phage binding by 100 nM IGF-1 [7]: > 40%
